Assay [1] concerns EGFR phosphorylation in PC3 cells. The assay is described as follows: Western blot of EGFR / p-EGFR-Y1068. The format is cell-based. Conditions: PC3 cells dosed 16 hours, p-EGFR-Y1068 by western blot. The protocol: We sought to ascertain a potential mechanism leading to decreased viability of cells upon exposure to H10 by examining cancer related pathways that have been linked with AGR2. […] We investigated the impact of H10 on EGFR phosphorylation as a possible mechanism of action. PC3 cells were dosed with H10 for 16 hours and the levels of EGFR and p-EGFR-Y1068 were analyzed by western blot (Figure 5C). […] Since amphiregulin is downstream of the HIPPO pathway, we also assessed the phosphorylation of the HIPPO effector, YAP1. We hypothesized that H10 may indirectly downregulate EGFR phosphorylation by altering activity of YAP1 (phosphorylation of YAP1 prevents […] translocation to the nucleus and transcription of amphiregulin [24]). Cell lysates from PC3 cells treated with H10 and the scrambled peptide were subject to immunoblot (Figure 5C).

Assay [2] deals with PC-3 cells. Kind of assay: Oris exclusion zone cell migration assay. The assay is classed as cell-based. Conditions: PC-3, 48 hours; taxol 5 nM, H10 10 μg/ml, control peptide 10 μg/ml, AGR2 antibody; fluorescent microscopy of cell-free zone. The protocol:
(§1) Cells were seeded into Oris™ 96-well plate with silicon stoppers in place (CMA1.101). Cell density was optimized for each cell type, PC-3 and MDA-MB-231 were seeded at 2.5×10^5 cells/mL or 6×10^4 cells/mL. Stoppers were removed 12 hours post seeding according to the manufacturer's protocol and treatments were added, Taxol (5 nM) (Selleckchem), H10 peptide (10 μg/ml), scrambled peptide (10 μg/ml), mouse anti-AGR2 antibody (1:50 of 2 μg/ml) (Santa Cruz Biotechnology), mouse-IgG (Santa Cruz Biotechnology), DMSO as control. After 48 hours, growth medium was aspirated and cells were fixed with 4% paraformaldehyde (Alfa Aesar) for 15 minutes at RT and washed with PBS. Cells were stained with Rhodamine phalloidin (Biotium) 1:40 and Hoechst (Invitrogen) 1:10,000 for 20 minutes at RT and washed with PBS.
(§2) Imaging was performed on a Zeiss Observer.Z1 microscope at 2.5x objective with AxioCam MRm camera and Axio Vision 4.8 software. Images were processed using ImageJ software package ( http://rsb.info.nih.gov/ij/) and following the cell migration method previously designed. The data was analyzed using GraphPad Prism 7.

Assay [3] deals with PC-3. The assay is described as follows: Luminescent cytotoxicity (ATP viability, CellTiter-Glo) assay. The format is cell-based. The settings on record: PC-3, 48 hours, eight concentrations, 4PL fit, read-out: IC50, cell viability. The protocol:
(§3) Cells were seeded into 96-well White with Clear Flat Bottom plates (Costar). Cell density was optimized for each cell type, PC-3 and MDA-MB-231 were seeded at 0.24×10^6 cells/mL or 0.06×10^6 cells/mL. After 12 hours, treatments were added, with the stock concentration for Taxol at 400 nM (Selleckchem), H10 peptide was 200 μg/mL and the control peptide was 200 μg/mL. We tested a total of eight concentrations using three-fold serial dilutions from the stock concentration. After 48 hours of treatment, we used the CellTiter-Glo Luminescent Cell Viability Assay (Promega) according to the manufacturer's protocol. The data was analyzed on Prism software using “log(inhibitor) vs. response” option. IC50 was calculated using the 4PL equation 1 as above.
For orientation: ATP-based viability assays read luminescence as a measure of living cells.

The subject of assay [4] is MDA-MB-231. Described as above. The assay is classed as cell-based. The settings on record: MDA-MB-231, 48 hours, eight concentrations, 4PL fit, read-out: IC50, cell viability. The protocol:
as §3

Assay [5] deals with T1, AGR2 (Homo sapiens, UniProt O95994).
T1 construct: histidine tag (N, cleaved yes); made in house; host or cells: E. coli BL21 de3
T1 sequence (O95994 with tags, fused parts or gaps): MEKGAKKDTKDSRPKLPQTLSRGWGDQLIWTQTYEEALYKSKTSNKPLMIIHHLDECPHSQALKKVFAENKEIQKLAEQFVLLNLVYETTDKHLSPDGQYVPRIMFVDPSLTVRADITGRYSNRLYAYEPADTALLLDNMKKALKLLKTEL
Kind of assay: SPR competition, AGR2 binding to immobilized H10 in presence of free peptide. Conditions: peptide 500 nM co-/pre-incubated with AGR2 500 nM. The method, then: SPR measurements were carried out on a Biacore T200 (GE) and data was analyzed using Biacore T200 Evaluation Software (version 1.0). Data was analyzed for a 1:1, two-stage and bivalent binding model. Average affinities were obtained from independent experimental repeats and errors are given as mean absolute deviations. Measurements were carried out at flow rates of 20 μL/min and confirmed experimentally to avoid mass transfer limitation. For direct binding studies of AGR2 to biotinylated H10-peptide a carboxymethyl-Dextran coated CM5 chip was coated with Streptavidin using standard amine coupling chemistry. Residual activated carboxyl groups were blocked with 1,2-Ethylenediamine. In contrast to conventional ethanolamine blocking, this procedure introduces positive charges to partially compensate the negative surface charge and reduce unspecific binding by AGR2. Biotinylated peptide was loaded and remaining free biotin sites were blocked by incubating the chip in biotin containing buffer over night to allow for biotinylated peptides to be used in competition assays. Optimal binding and minimal unspecific interaction was found for a running buffer consisting of Tris (100 mM, pH 7.5), NaCl (150 mM) and MgCl2 (10 mM).

Assay [6] deals with MDA-MB-231 cells. The assay is described as follows: Oris exclusion zone cell migration assay. Conditions: MDA-MB-231, 48 hours; H10 5 μmoles/L (10 μg/ml), taxol 5 nM, control peptide 10 μg/ml. The format is cell-based. The method, then: as §1, §2
The target in assay [7] is T2, H10 peptide (biotin-…).
T2 chain: GGGSGMKMQVRIYLV
Kind of assay: ELISA. Conditions: chain shown with the change, read off a plot.

Assay [8] concerns the target T3, extracellular AGR2 (eAGR2) in spent media of cancer cell lines (human (endogenous in MCF-7 and 22Rv1), UniProt O95994 21-175).
T3 sequence (looked up): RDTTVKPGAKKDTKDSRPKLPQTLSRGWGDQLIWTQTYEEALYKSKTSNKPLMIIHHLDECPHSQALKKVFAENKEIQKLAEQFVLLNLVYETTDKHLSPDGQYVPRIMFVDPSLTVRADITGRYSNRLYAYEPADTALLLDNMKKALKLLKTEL
The assay is described as follows: cell-based or functional assay.

The mark [9] stands for this setting: AGR2 100 ng/ml, parent: est. 61.
[10] abbreviates: AGR2 200 ng/ml, parent: est. 76.
Where [11] appears, read: AGR2 400 ng/ml, parent: est. 82.
[12] abbreviates: AGR2 600 ng/ml, parent: est. 83.
Where [13] appears, read: AGR2 800 ng/ml, parent: est. 91.

No end group written: not given here. *: point of attachment. Biotin = O=C1N[C@H]2[C@H](CS[C@H]2CCCCC(=O)*)N1

Turning to GGGSG VMLKYMIQRV [scrambled peptide], the “concentration sufficient to downregulate EGFR phosphorylation” value in assay [1] was above 20 µM.
As to `CC(=O)O[C@H]1C(=O)[C@@]2(C)[C@H]([C@H](OC(=O)c3ccccc3)[C@]3(O)C[C@H](OC(=O)[C@H](O)[C@@H](NC(=O)c4ccccc4)c4ccccc4)C(C)=C1C3(C)C)[C@]1(OC(C)=O)CO[C@@H]1C[C@@H]2O` [taxol], in assay [2], the “inhibition of cell migration” value was “inhibits cell migration of PC-3 cells”.
As for “Biotin-GSGSGSGSGSGSGSS [control peptide, biotinylated Gly/Ser control peptide, length 15]”, the IC50 in assay [3] and in assay [4] was above 100 µM throughout. For the same molecule, the “suppression of AGR2 binding to immobilized H10 by free peptide” value in assay [5] was “largely ineffective”. The “inhibition of cell migration” value in assay [6] is listed as “did not alter cell migration”.

B1: Δ27 AGR2 (recombinant anterior gradient protein 2 without the ER leader sequence), O95994 E96K (protein)
chain: GAKKDTKDSRPKLPQTLSRGWGDQLIWTQTYEEALYKSKTSNKPLMIIHHLDECPHSQALKKVFAENKKIQKLAEQFVLLNLVYETTDKHLSPDGQYVPRIMFVDPSLTVRADITGRYSNRLYAYEPADTALLLDNMKKALKLLKTELGLNDIFEAQKIEWHE
For the molecule B1, the response in assay [7] (setting [9]) was 30 % of binding; in assay [7] (setting [10]) it was 27 % of binding; in assay [7] (setting [11]), 30 % of binding; in assay [7] (setting [12]), 36 % of binding; in assay [7] (setting [13]), 55 % of binding.

B2: Δ27 AGR2 (recombinant anterior gradient protein 2 without the ER leader sequence), O95994 E60Q (protein)
chain: GAKKDTKDSRPKLPQTLSRGWGDQLIWTQTYEQALYKSKTSNKPLMIIHHLDECPHSQALKKVFAENKEIQKLAEQFVLLNLVYETTDKHLSPDGQYVPRIMFVDPSLTVRADITGRYSNRLYAYEPADTALLLDNMKKALKLLKTELGLNDIFEAQKIEWHE
With B2, the response in assay [7] (setting [9]) was 42 % of binding; in assay [7] (setting [10]), 42 % of binding; in assay [7] (setting [11]), 46 % of binding; in assay [7] (setting [12]), 51 % of binding; in assay [7] (setting [13]), 57 % of binding.

B3: H10 peptide (biotin-GGGSGMKMQVRIYLV) (peptide)
peptide: Biotin-GGGSGMKMQVRIYLV
In the case of B3, in assay [8], the “ATP viability assay (CellTiter-Glo), MDA-MB-231 cells, 48 hours, IC50 of H10” value came out at 12 µM and the “ATP viability assay (CellTiter-Glo), PC-3 cells, 48 hours, IC50 of H10” value was 9 µM.

As usually defined, the IC50 is the concentration that gives 50% inhibition.

(Values after publication PMC6007958, “Identification, characterization and application of a new peptide against anterior gradient homolog 2 (AGR2)” (Oncotarget, 2018).)
